Data as given in publication PMC9605926, “Safety of [^177Lu]Lu-NeoB treatment: a preclinical study characterizing absorbed dose and acute, early, and late organ toxicity” (European Journal of Nuclear Medicine and Molecular Imaging, 2022).

Tested on: healthy Balb/c mice
Test: Toxicity study, histopathology (5-point grade); 3 i.v. injections at 7-day interval; control group 2 = 3× 1200 pmol [175Lu]Lu-NeoB; treatment groups 1/2/3 = 3× 40 MBq/400 pmol, 80 MBq/800 pmol, 120 MBq/1200 pmol [177Lu]Lu-NeoB
Format: in vivo, mouse
Method: Five different experimental groups (10 male and 10 female healthy animals per group; n = 100) were included in the radiotoxicity study and treated as follows: control group 1: 3 × vehicle (PBS + kolliphor HS 15 (1 mg/mL)); control group 2: 3 × 1200 pmol [^175Lu]Lu-NeoB; treatment group 1: 3 × 40 MBq/400 pmol [^177Lu]Lu-NeoB; treatment group 2: 3 × 80 MBq/800 pmol [^177Lu]Lu-NeoB; and treatment group 3: 3 × 120 MBq/1200 pmol [^177Lu]Lu-NeoB.
Animals received 3 injections with an interval of 7 days between each injection.
At 5, 19, and 43 weeks after the first injection, 3–4 male and 3–4 female animals of each group were sacrificed by isoflurane overdose after a blood sample was taken by retro-orbital puncture. Hereafter, the axillary lymph nodes, mesenteric lymph nodes, skin, mammary fat pad, sternum, pancreas, adrenal glands, kidneys, spleen, liver, gallbladder, stomach, duodenum, jejunum, ileum, caecum, colon, rectum, testes (M), epididymis (M), seminal vesicles (M), prostate gland (M), ovaries (F), oviducts (F), uterus-cervix (F), vagina (F), bladder, ureters, sciatic nerve, skeletal muscle, femur, lungs, trachea, esophagus, thymus, thyroid gland, aorta, heart, brain, pituitary gland, eyes, harderian glands, tongue, spinal column, and the tail were collected and analyzed macroscopically. All organs and tissues were formalin fixed (4% buffered formaldehyde) and shipped to the European Research Biology Centre (ERBC, Pomezia, Rome, Italy) where histological sampling, embedding, sectioning (5 µm thick), and hematoxylin–eosin staining were performed according to standard guidelines. All organs and tissues were analyzed microscopically by an experienced pathologist. A 5-point grading scale was used: 1: minimal change, 2: mild change, 3: moderate change, 4: marked change, 5: severe change.

[1] = female wk 5, treatment group 1, grade 1
[2] = female wk 5, treatment group 1, grade 2
[3] = female wk 5, treatment group 2, grade 1
[4] = female wk 5, treatment group 2, grade 2
[5] = female wk 5, treatment group 3, grade 1
[6] = female wk 5, treatment group 3, grade 2
[7] = female wk 19, treatment group 1, grade 1
[8] = female wk 19, treatment group 1, grade 2
[9] = female wk 19, treatment group 2, grade 1
[10] = female wk 19, treatment group 2, grade 2
[11] = female wk 19, treatment group 3, grade 1
[12] = female wk 19, treatment group 3, grade 2
[13] = female wk 43, treatment group 1, grade 1
[14] = female wk 43, treatment group 1, grade 4
[15] = female wk 43, treatment group 2, grade 1
[16] = female wk 43, treatment group 2, grade 2
[17] = female wk 43, treatment group 3, grade 2
[18] = female wk 43, treatment group 3, grade 3
[19] = female wk 43, treatment group 3, grade 4
[20] = male wk 5, treatment group 1, grade 1
[21] = male wk 5, treatment group 1, grade 2
[22] = male wk 5, treatment group 3, grade 1
[23] = male wk 5, treatment group 3, grade 2
[24] = male wk 19, treatment group 1, grade 1
[25] = male wk 19, treatment group 1, grade 2
[26] = male wk 19, treatment group 2, grade 1
[27] = male wk 19, treatment group 2, grade 2
[28] = male wk 19, treatment group 3, grade 1
[29] = male wk 19, treatment group 3, grade 2
[30] = male wk 43, treatment group 1, grade 1
[31] = male wk 43, treatment group 1, grade 2
[32] = male wk 43, treatment group 2, grade 1
[33] = male wk 43, treatment group 2, grade 2
[34] = male wk 43, treatment group 3, grade 1
[35] = male wk 43, treatment group 3, grade 2
[36] = male wk 43, treatment group 3, grade 3
[37] = week 19, male treatment group 2

CC(C)CC(CC(C)C)NC(=O)[C@H](Cc1cnc[nH]1)NC(=O)CNC(=O)[C@@H](NC(=O)[C@H](C)NC(=O)[C@H](Cc1c[nH]c2ccccc12)NC(=O)[C@H](CCC(N)=O)NC(=O)[C@@H](Cc1ccccc1)NC(=O)COCC(=O)Nc1ccc(CNC(=O)CN2CCN(CC(=O)O)CCN(CC(=O)O)CCN(CC(=O)O)CC2)cc1)C(C)C [[^177Lu]Lu-NeoB, metal not drawn]
Adrenal glands subcapsular cell hyperplasia, incidence [1]: 1/3 | Urinary bladder inflammatory cell foci, incidence [1]: 1/3 | Adrenal glands subcapsular cell hyperplasia, incidence [2]: 1/3 | Spleen extramedullary haematopoiesis, incidence [2]: 2/3 | Adrenal glands subcapsular cell hyperplasia, incidence [3]: 3/3 | Liver inflammatory cell foci, incidence [3]: 1/3 | Urinary bladder inflammatory cell foci, incidence [3]: 1/3 | Urinary bladder urothelium vacuolation, incidence [3]: 2/3 | Urinary bladder inflammatory cell foci, incidence [4]: 2/3 | Urinary bladder urothelium vacuolation, incidence [4]: 1/3 | Adrenal glands subcapsular cell hyperplasia, incidence [5]: 1/3 | Liver inflammatory cell foci, incidence [5]: 1/3 | Thyroid gland follicular cyst/s, incidence [5]: 1/3 | Urinary bladder inflammatory cell foci, incidence [5]: 1/3 | Urinary bladder urothelium vacuolation, incidence [5]: 1/3 | Spleen extramedullary haematopoiesis, incidence [6]: 1/3 | Urinary bladder inflammatory cell foci, incidence [6]: 2/3 | Urinary bladder urothelium vacuolation, incidence [6]: 2/3 | Brain artifacts, incidence (female wk 5, treatment group 3, grade 3): 1/3 | Adrenal glands subcapsular cell hyperplasia, incidence [7]: 1/3 | Liver inflammatory cell foci, incidence [7]: 1/3 | Pancreas inflammatory cell foci, incidence [7]: 2/3 | Urinary bladder inflammatory cell foci, incidence [7]: 2/3 | Urinary bladder urothelium vacuolation, incidence [7]: 2/3 | Adrenal glands subcapsular cell hyperplasia, incidence [8]: 2/3 | Liver inflammatory cell foci, incidence [8]: 1/3 | Urinary bladder inflammatory cell foci, incidence [8]: 1/3 | Kidneys hydronephrosis, incidence (female wk 19, treatment group 1, grade 4): 1/3 | Adrenal glands subcapsular cell hyperplasia, incidence [9]: 2/3 | Liver inflammatory cell foci, incidence [9]: 2/3 | Pancreas inflammatory cell foci, incidence [9]: 1/3 | Urinary bladder inflammatory cell foci, incidence [9]: 2/3 | Urinary bladder urothelium vacuolation, incidence [9]: 2/3 | Adrenal glands subcapsular cell hyperplasia, incidence [10]: 1/3 | Spleen extramedullary haematopoiesis, incidence [10]: 1/3 | Urinary bladder urothelium vacuolation, incidence [10]: 1/3 | Adrenal glands subcapsular cell hyperplasia, incidence [11]: 1/3 | Pancreas inflammatory cell foci, incidence [11]: 1/3 | Urinary bladder inflammatory cell foci, incidence [11]: 1/3 | Urinary bladder urothelium vacuolation, incidence [11]: 1/3 | Adrenal glands subcapsular cell hyperplasia, incidence [12]: 2/3 | Kidneys nephropathy, incidence [12]: 1/3 | Pancreas inflammatory cell foci, incidence [12]: 1/3 | Ureter(s) dilatation, incidence [12]: 1/3 | Urinary bladder inflammatory cell foci, incidence [12]: 1/3 | Urinary bladder urothelium vacuolation, incidence [12]: 1/3 | Urinary bladder inflammatory cell foci, incidence (female wk 19, treatment group 3, grade 3): 1/3 | Kidneys hydronephrosis, incidence (female wk 19, treatment group 3, grade 4): 3/3 | Urinary bladder inflammatory cell foci, incidence [13]: 1/3 | Urinary bladder urothelium vacuolation, incidence [13]: 1/3 | Adrenal glands subcapsular cell hyperplasia, incidence (female wk 43, treatment group 1, grade 2): 2/3 | Adrenal glands subcapsular cell hyperplasia, incidence (female wk 43, treatment group 1, grade 3): 1/3 | Ovaries atrophy, incidence [14]: 3/3 | Uterus endometrial hyperplasia, incidence [14]: 3/3 | Liver inflammatory cell foci, incidence [15]: 3/4 | Urinary bladder inflammatory cell foci, incidence [15]: 1/4 | Urinary bladder urothelium vacuolation, incidence [15]: 1/4 | Adrenal glands subcapsular cell hyperplasia, incidence [16]: 3/4 | Lungs alveolar epithelialization, incidence [16]: 1/4 | Adrenal glands subcapsular cell hyperplasia, incidence (female wk 43, treatment group 2, grade 3): 1/4 | Ovaries atrophy, incidence (female wk 43, treatment group 2, grade 4): 3/4 | Kidneys hydronephrosis, incidence (female wk 43, treatment group 2, grade 5): 1/4 | Adrenal glands subcapsular cell hyperplasia, incidence [17]: 4/4 | Pancreas inflammatory cell foci, incidence [17]: 1/4 | Urinary bladder mineralization, incidence [17]: 1/4 | Lungs B-adenoma, incidence [18]: 1/4 | Ureter(s) dilation, incidence [18]: 1/4 | Kidneys hydronephrosis, incidence [19]: 1/4 | Ovaries atrophy, incidence [19]: 4/4 | Kidneys hydronephrosis, incidence (female wk 43, treatment group 3, grade 5): 1/4 | Adrenal glands subcapsular cell hyperplasia, incidence [20]: 1/3 | Pancreas acinar cell degeneration, incidence [20]: 1/3 | Spleen extramedullary haematopoiesis, incidence [21]: 2/3 | Testes germ cell depletion, incidence [21]: 1/3 | Thyroid gland ectopic thymus, incidence (male wk 5, treatment group 1, grade 3): 1/3 | Testes germ cell depletion, incidence (male wk 5, treatment group 2, grade 1): 1/3 | Thyroid gland ectopic thymus, incidence (male wk 5, treatment group 2, grade 3): 1/3 | Prostate gland inflammatory cell foci, incidence [22]: 2/3 | Testes germ cell depletion, incidence [22]: 1/3 | Urinary bladder inflammatory cell foci, incidence [22]: 3/3 | Urinary bladder urothelium vacuolation, incidence [22]: 2/3 | Heart inflammatory cell foci, incidence [23]: 1/3 | Pancreas mineralization, incidence [23]: 1/3 | Urinary bladder mineralization, incidence [23]: 1/3 | Urinary bladder urothelium vacuolation, incidence [23]: 1/3 | Adrenal glands subcapsular cell hyperplasia, incidence [24]: 1/3 | Testes germ cell depletion, incidence [24]: 2/3 | Adrenal glands subcapsular cell hyperplasia, incidence [25]: 1/3 | Spleen extramedullary haematopoiesis, incidence [25]: 1/3 | Thyroid gland ectopic thymus, incidence (male wk 19, treatment group 1, grade 3): 1/3 | Adrenal glands subcapsular cell hyperplasia, incidence [26]: 1/3 | Urinary bladder inflammatory cell foci, incidence [26]: 2/3 | Urinary bladder urothelium vacuolation, incidence [26]: 3/3 | Adrenal glands subcapsular cell hyperplasia, incidence [27]: 1/3 | Pancreas inflammatory cell foci, incidence [27]: 2/3 | Kidneys hydronephrosis, incidence (male wk 19, treatment group 2, grade 3): 1/3 | Kidneys hydronephrosis, incidence (male wk 19, treatment group 2, grade 4): 2/3 | Adrenal glands subcapsular cell hyperplasia, incidence [28]: 2/3 | Urinary bladder urothelium vacuolation, incidence [28]: 1/3 | Adrenal glands subcapsular cell hyperplasia, incidence [29]: 1/3 | Spleen extramedullary haematopoiesis, incidence [29]: 1/3 | Thyroid gland ectopic thymus, incidence (male wk 19, treatment group 3, grade 3): 1/3 | Kidneys hydronephrosis, incidence (male wk 19, treatment group 3, grade 4): 2/3 | Adrenal glands subcapsular cell hyperplasia, incidence [30]: 2/3 | Kidneys inflammatory cell foci, incidence [30]: 1/3 | Kidneys nephropathy, incidence [30]: 2/3 | Pancreas acinar cell degeneration, incidence [30]: 1/3 | Pancreas inflammatory cell foci, incidence [30]: 1/3 | Skin inflammatory cell foci, incidence [30]: 1/3 | Skin scab formulation, incidence [30]: 1/3 | Urinary bladder inflammatory cell foci, incidence [30]: 1/3 | Adrenal glands subcapsular cell hyperplasia, incidence [31]: 1/3 | Pancreas inflammatory cell foci, incidence [31]: 2/3 | Adrenal glands subcapsular cell hyperplasia, incidence [32]: 2/4 | Kidneys nephropathy, incidence [32]: 1/4 | Urinary bladder inflammatory cell foci, incidence [32]: 2/4 | Urinary bladder urothelium vacuolation, incidence [32]: 1/4 | Adrenal glands subcapsular cell hyperplasia, incidence [33]: 1/4 | Kidneys nephropathy, incidence [33]: 1/4 | Pancreas inflammatory cell foci, incidence [33]: 2/4 | Urinary bladder inflammatory cell foci, incidence [33]: 1/4 | Adrenal glands subcapsular cell hyperplasia, incidence (male wk 43, treatment group 2, grade 3): 1/4 | Kidneys hydronephrosis, incidence (male wk 43, treatment group 2, grade 4): 2/4 | Adrenal glands subcapsular cell hyperplasia, incidence [34]: 3/4 | Kidneys nephropathy, incidence [34]: 1/4 | Liver inflammatory cell foci, incidence [34]: 2/4 | Pancreas inflammatory cell foci, incidence [34]: 2/4 | Skin inflammatory cell foci, incidence [34]: 1/4 | Testes germ cell depletion, incidence [34]: 1/4 | Adrenal glands subcapsular cell hyperplasia, incidence [35]: 1/4 | Kidneys cyst/s, incidence [35]: 1/4 | Epididymides spermatic granuloma, incidence [36]: 1/4 | Ureter(s) dilation, incidence [36]: 1/4 | Kidneys hydronephrosis, incidence (male wk 43, treatment group 3, grade 4): 3/4 | Cytoplasmic vacuolation of urothelial cells, incidence (week 5, female treatment group 2, minimal or mild): 3/3 | Cytoplasmic vacuolation of urothelial cells, incidence (week 5, female treatment group 3, minimal or mild): 3/3 | Cytoplasmic vacuolation of urothelial cells, incidence (week 5, male treatment group 3, minimal or mild): 3/3 | Cytoplasmic vacuolation of urothelial cells, incidence (week 19, all female treatment groups): 7/9 | Hydronephrosis, incidence (week 19, female treatment group 1): 1/3 | Hydronephrosis, incidence (week 19, female treatment group 3): 3/3 | Cytoplasmic vacuolation of urothelial cells, incidence [37]: 3/3 | Hydronephrosis, incidence [37]: 3/3 | Hydronephrosis, incidence (week 19, male treatment group 3): 2/3 | Marked ovarian atrophy, incidence (week 43, all treated females): 10/11 | Marked or severe hydronephrosis, incidence (week 43, female treatment group 2): 1/4 | Marked or severe hydronephrosis, incidence (week 43, female treatment group 3): 2/4 | Marked or severe hydronephrosis, incidence (week 43, male treatment group 2): 2/4 | Marked or severe hydronephrosis, incidence (week 43, male treatment group 3): 3/4
